B1: Phospholipase D alpha 1 (Arabidopsis thaliana (Mouse-ear cress)), Q38882 (parent)
chain: MAQHLLHGTLHATIYEVDALHGGGVRQGFLGKILANVEETIGVGKGETQLYATIDLQKARVGRTRKIKNEPKNPKWYESFHIYCAHLASDIIFTVKDDNPIGATLIGRAYIPVDQVINGEEVDQWVEILDNDRNPIQGGSKIHVKLQYFHVEEDRNWNMGIKSAKFPGVPYTFFSQRQGCKVSLYQDAHIPDNFVPRIPLAGGKNYEPQRCWEDIFDAISNAKHLIYITGWSVYAEIALVRDSRRPKPGGDVTIGELLKKKASEGVRVLLLVWDDRTSVDVLKKDGLMATHDEETENFFRGSDVHCILCPRNPDDGGSIVQSLQISTMFTHHQKIVVVDSEMPSRGGSEMRRIVSFVGGIDLCDGRYDTPFHSLFRTLDTVHHDDFHQPNFTGAAITKGGPREPWHDIHSRLEGPIAWDVMYNFEQRWSKQGGKDILVKLRDLSDIIITPSPVMFQEDHDVWNVQLFRSIDGGAAAGFPESPEAAAEAGLVSGKDNIIDRSIQDAYIHAIRRAKDFIYVENQYFLGSSFAWAADGITPEDINALHLIPKELSLKIVSKIEKGEKFRVYVVVPMWPEGLPESGSVQAILDWQRRTMEMMYKDVIQALRAQGLEEDPRNYLTFFCLGNREVKKDGEYEPAEKPDPDTDYMRAQEARRFMIYVHTKMMIVDDEYIIIGSANINQRSMDGARDSEIAMGGYQPHHLSHRQPARGQIHGFRMSLWYEHLGMLDETFLDPSSLECIEKVNRISDKYWDFYSSESLEHDLPGHLLRYPIGVASEGDITELPGFEFFPDTKARILGTKSDYLPPILTT

Variants of: B1
Settings: with xlg3_arath XLG3, Q9C516

Variant | effect of a mutation on the interaction
F565A | decreasing interaction
K564A | decreasing interaction
E563A | decreasing interaction
